Data: paper PMC10746786 (2023)

B1: FLAG-tagged EIF4G2 WT [human] / HADHB [human (endogenous in HEK293T)] (parent complex)
chain 1: MESAIAEGGASRFSASSGGGGSRGAPQHYPKTAGNSEFLGKTPGQNAQKWIPARSTRRDDNSAANNSANEKERHDAIFRKVRGILNKLTPEKFDKLCLELLNVGVESKLILKGVILLIVDKALEEPKYSSLYAQLCLRLAEDAPNFDGPAAEGQPGQKQSTTFRRLLISKLQDEFENRTRNVDVYDKRENPLLPEEEEQRAIAKIKMLGNIKFIGELGKLDLIHESILHKCIKTLLEKKKRVQLKDMGEDLECLCQIMRTVGPRLDHERAKSLMDQYFARMCSLMLSKELPARIRFLLQDTVELREHHWVPRKAFLDNGPKTINQIRQDAVKDLGVFIPAPMAQGMRSDFFLEGPFMPPRMKMDRDPLGGLADMFGQMPGSGIGTGPGVIQDRFSPTMGRHRSNQLFNGHGGHIMPPTQSQFGEMGGKFMKSQGLSQLYHNQSQGLLSQLQGQSKDMPPRFSKKGQLNADEISLRPAQSFLMNKNQVPKLQPQITMIPPSAQPPRTQTPPLGQTPQLGLKTNPPLIQEKPAKTSKKPPPSKEELLKLTETVVTEYLNSGNANEAVNGVREMRAPKHFLPEMLSKVIILSLDRSDEDKEKASSLISLLKQEGIATSDNFMQAFLNVLDQCPKLEVDIPLVKSYLAQFAARAIISELVSISELAQPLESGTHFPLFLLCLQQLAKLQDREWLTELFQQSKVNMQKMLPEIDQNKDRMLEILEGKGLSFLFPLLKLEKELLKQIKLDPSPQTIYKWIKDNISPKLHVDKGFVNILMTSFLQYISSEVNPPSDETDSSSAPSKEQLEQEKQLLLSFKPVMQKFLHDHVDLQVSALYALQVHCYNSNFPKGMLLRFFVHFYDMEIIEEEAFLAWKEDITQEFPGKGKALFQVNQWLTWLETAEEEESEEEAD
chain 2: AAPAVQTKTKKTLAKPNIRNVVVVDGVRTPFLLSGTSYKDLMPHDLARAALTGLLHRTSVPKEVVDYIIFGTVIQEVKTSNVAREAALGAGFSDKTPAHTVTMACISANQAMTTGVGLIASGQCDVIVAGGVELMSDVPIRHSRKMRKLMLDLNKAKSMGQRLSLISKFRFNFLAPELPAVSEFSTSETMGHSADRLAAAFAVSRLEQDEYALRSHSLAKKAQDEGLLSDVVPFKVPGKDTVTKDNGIRPSSLEQMAKLKPAFIKPYGTVTAANSSFLTDGASAMLIMAEEKALAMGYKPKAYLRDFMYVSQDPKDQLLLGPTYATPKVLEKAGLTMNDIDAFEFHEAFSGQILANFKAMDSDWFAENYMGRKTKVGLPPLEKFNNWGGSLSLGHPFGATGCRLVMAAANRLRKEGGQYGLVAACAAGGQGHAMIVEAYPK
B2: FLAG-tagged EIF4G2 WT [human] / PRRC2C [human (endogenous in HEK293T)] (parent complex)
chain 1: B1 chain 1
chain 2: MSEKSGQSTKAKDGKKYATLSLFNTYKGKSLETQKTTARHGLQSLGKVGISRRMPPPANLPSLKAENKGNDPNVNIVPKDGTGWASKQEQHEEEKTPEVPPAQPKPGVAAPPEVAPAPKSWASNKQGGQGDGIQVNSQFQQEFPSLQAAGDQEKKEKETNDDNYGPGPSLRPPNVACWRDGGKAAGSPSSSDQDEKLPGQDESTAGTSEQNDILKVVEKRIACGPPQAKLNGQQAALASQYRAMMPPYMFQQYPRMTYPPLHGPMRFPPSLSETNKGLRGRGPPPSWASEPERPSILSASELKELDKFDNLDAEADEGWAGAQMEVDYTEQLNFSDDDEQGSNSPKENNSEDQGSKASENNENKKETDEVSNTKSSSQIPAQPSVAKVPYGKGPSFNQERGTSSHLPPPPKLLAQQHPPPDRQAVPGRPGPFPSKQQVADEDEIWKQRRRQQSEISAAVERARKRREEEERRMEEQRKAACAEKLKRLDEKLGILEKQPSPEEIREREREKEREREKELEKEQEQEREKEREKDRERQQEKEKELEKEQEKQREMEKERKQEKEKELERQKEKEKELQKMKEQEKECELEKEREKLEEKIEPREPNLEPMVEKQESENSCNKEEEPVFTRQDSNRSEKEATPVVHETEPESGSQPRPAVLSGYFKQFQKSLPPRFQRQQEQMKQQQWQQQQQQGVLPQTVPSQPSSSTVPPPPHRPLYQPMQPHPQHLASMGFDPRWLMMQSYMDPRMMSGRPAMDIPPIHPGMIPPKPLMRRDQMEGSPNSSESFEHIARSARDHAISLSEPRMLWGSDPYPHAEPQQATTPKATEEPEDVRSEAALDQEQITAAYSVEHNQLEAHPKADFIRESSEAQVQKFLSRSVEDVRPHHTDANNQSACFEAPDQKTLSAPQEERISAVESQPSRKRSVSHGSNHTQKPDEQRSEPSAGIPKVTSRCIDSKEPIERPEEKPKKEGFIRSSEGPKPEKVYKSKSETRWGPRPSSNRREEVNDRPVRRSGPIKKPVLRDMKEEREQRKEKEGEKAEKVTEKVVVKPEKTEKKDLPPPPPPPQPPAPIQPQSVPPPIQPEAEKFPSTETATLAQKPSQDTEKPLEPVSTVQVEPAVKTVNQQTMAAPVVKEEKQPEKVISKDLVIERPRPDSRPAVKKESTLPPRTYWKEARERDWFPDQGYRGRGRGEYYSRGRSYRGSYGGRGRGGRGHTRDYPQYRDNKPRAEHIPSGPLRQREESETRSESSDFEVVPKRRRQRGSETDTDSEIHESASDKDSLSKGKLPKREERPENKKPVKPHSSFKPDNHVRIDNRLLEKPYVRDDDKAKPGFLPKGEPTRRGRGGTFRRGGRDPGGRPSRPSTLRRPAYRDNQWNPRQSEVPKPEDGEPPRRHEQFIPIAADKRPPKFERKFDPARERPRRQRPTRPPRQDKPPRFRRLREREAASKSNEVVAVPTNGTVNNVAQEPVNTLGDISGNKTPDLSNQNSSDQANEEWETASESSDFNERRERDEKKNADLNAQTVVKVGENVLPPKREIAKRSFSSQRPVDRQNRRGNNGPPKSGRNFSGPRNERRSGPPSKSGKRGPFDDQPAGTTGVDLINGSSAHHQEGVPNGTGQKNSKDSTGKKREDPKPGPKKPKEKVDALSQFDLNNYASVVIIDDHPEVTVIEDPQSNLNDDGFTEVVSKKQQKRLQDEERRKKEEQVIQVWNKKNANEKGRSQTSKLPPRFAKKQATGIQQAQSSASVPPLASAPLPPSTSASVPASTSAPLPATLTPVPASTSAPVPASTLAPVLASTSAPVPASPLAPVSASASVSASVPASTSAAAITSSSAPASAPAPTPILASVSTPASVTILASASIPILASALASTSAPTPAPAASSPAAPVITAPTIPASAPTASVPLAPASASAPAPAPTPVSAPNPAPPAPAQTQAQTHKPVQNPLQTTSQSSKQPPPSIRLPSAQTPNGTDYVASGKSIQTPQSHGTLTAELWDNKVAPPAVLNDISKKLGPISPPQPPSVSAWNKPLTSFGSAPSSEGAKNGQESGLEIGTDTIQFGAPASNGNENEVVPVLSEKSADKIPEPKEQRQKQPRAGPIKAQKLPDLSPVENKEHKPGPIGKERSLKNRKVKDAQQVEPEGQEKPSPATVRSTDPVTTKETKAVSEMSTEIGTMISVSSAEYGTNAKESVTDYTTPSSSLPNTVATNNTKMEDTLVNNVPLPNTLPLPKRETIQQSSSLTSVPPTTFSLTFKMESARKAWENSPNVREKGSPVTSTAPPIATGVSSSASGPSTANYNSFSSASMPQIPVASVTPTASLSGAGTYTTSSLSTKSTTTSDPPNICKVKPQQLQTSSLPSASHFSQLSCMPSLIAQQQQNPQVYVSQSAAAQIPAFYMDTSHLFNTQHARLAPPSLAQQQGFQPGLSQPTSVQQIPIPIYAPLQGQHQAQLSLGAGPAVSQAQELFSSSLQPYRSQPAFMQSSLSQPSVVLSGTAIHNFPTVQHQELAKAQSGLAFQQTSNTQPIPILYEHQLGQASGLGGSQLIDTHLLQARANLTQASNLYSGQVQQPGQTNFYNTAQSPSALQQVTVPLPASQLSLPNFGSTGQPLIALPQTLQPPLQHTTPQAQAQSLSRPAQVSQPFRGLIPAGTQHSMIATTGKMSEMELKAFGSGIDIKPGTPPIAGRSTTPTSSPFRATSTSPNSQSSKMNSIVYQKQFQSAPATVRMTQPFPTQFAPQILSQPNLVPPLVRAPHTNTFPAPVQRPPMALASQMPPPLTTGLMSHARLPHVARGPCGSLSGVRGNQAQAALKAEQDMKAKQRAEVLQSTQRFFSEQQQSKQIGGGKAQKVDSDSSKPPETLTDPPGVCQEKVEEKPPPAPSIATKPVRTGPIKPQAIKTEETKS
B3: FLAG-tagged EIF4G2 WT [human] / EIF4A2 [human (endogenous in HEK293T)] (parent complex)
chain 1: B1 chain 1
chain 2: MSGGSADYNREHGGPEGMDPDGVIESNWNEIVDNFDDMNLKESLLRGIYAYGFEKPSAIQQRAIIPCIKGYDVIAQAQSGTGKTATFAISILQQLEIEFKETQALVLAPTRELAQQIQKVILALGDYMGATCHACIGGTNVRNEMQKLQAEAPHIVVGTPGRVFDMLNRRYLSPKWIKMFVLDEADEMLSRGFKDQIYEIFQKLNTSIQVVLLSATMPTDVLEVTKKFMRDPIRILVKKEELTLEGIKQFYINVEREEWKLDTLCDLYETLTITQAVIFLNTRRKVDWLTEKMHARDFTVSALHGDMDQKERDVIMREFRSGSSRVLITTDLLARGIDVQQVSLVINYDLPTNRENYIHRIGRGGRFGRKGVAINFVTEEDKRILRDIETFYNTTVEEMPMNVADLI

Variants of: B1
Experiment: co-immunoprecipitation followed by mass spectrometry; FLAG-tagged EIF4G2 transfected into HEK293T cells; corrected for EIF4G2 levels in IP; read off a plot

| ratio to parent | Variant |
| --- | --- |
| ~4.9 | chain 1 R178Q |

Variants of: B2
Experiment: as above

| ratio to parent | Variant |
| --- | --- |
| ~1.6 | chain 1 N785K |
| ~2.4 | chain 1 R165C |

Variants of: B3
Experiment: as above

| ratio to parent | Variant |
| --- | --- |
| ~5.6 | chain 1 R178Q |
